# Experimental data taken from US6468985B1, “Retinoblastoma protein-interacting zinc finger proteins” (The Burnham Institute, priority 1994, dated 2002).
# Tests used:
# [1] = biological target: T1, RIZ GTPase domain (GST-G) (Rattus norvegicus, UniProt Q63755); assay: competition of unlabeled nucleotides for GTP binding of RIZ GTPase domain; details: 20 mM unlabeled nucleotide, 1 hr before α-32P-GTP
# T1 construct: a fragment of RIZ from amino acid position 760-949 (RIZ 760-949), containing the putative GTPase domain; made in house; E. coli XL-1 blue is printed only for pKG7.1S)
# T1 sequence (Q63755 760-949): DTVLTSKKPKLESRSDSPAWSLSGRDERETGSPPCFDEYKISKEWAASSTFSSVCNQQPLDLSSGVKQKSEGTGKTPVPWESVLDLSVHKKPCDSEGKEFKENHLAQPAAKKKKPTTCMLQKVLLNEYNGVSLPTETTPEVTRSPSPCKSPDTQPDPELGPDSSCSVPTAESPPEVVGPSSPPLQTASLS
# Description: The GTPase domain of RIZ, which was defined by sequence homology, was evaluated to determine if it was functionally active. For these studies, a fragment of RIZ from amino acid position 760-949 (RIZ 760-949), containing the putative GTPase domain was expressed as a fusion to GST from the plasmid pKG-G and tested for binding to radiolabeled nucleotides. pKG-G was produced by PCR amplification of the nucleotide sequence encoding RIZ (760-949) using primers 5′-TCTCCACAGC ACAGCCCT-3′ (SEQ ID NO: 15), and 5′-GGATAAGGAG GCTGTCTG-3′ (SEQ ID NO: 16) and PCMVRIZ as template. The fragment was cloned into pBSK+ and then into PGEX-KG, expressed and purified by glutathionine-agarose as described above. GST was also expressed from vector PGEX-KG and purified as described above.
# To measure GTP-binding, 0.5 μg of GST-RIZ or control GST proteins were separated by SDS-PAGE and blotted onto nitrocellulose. Proteins were renatured in GTP-binding buffer (50 mM Tris-HCl, pH8, 100 mM KCl, 10% glycerol, 0.1% Triton X-100, and 2 mM […]). The nitrocellulose was incubated for 30 min in GTP-binding buffer and then for 2 hr in GTP-binding buffer containing 1 μM α-^32P-GTP (800 Ci/mmol). The nitrocellulose was washed 5 times in GTP-binding buffer, dried and autoradiographed. In some samples, 20 mM unlabeled nucleotides were incubated with the nitrocellulose for 1 hr prior to the addition of α-^32P-GTP.
# [2] = biological target: T2, Rb from HT1080 cell extract (Homo sapiens, UniProt P06400); assay: GST-RIZ (215-462) glutathione-agarose pull-down of Rb from cell extract, anti-Rb immunoblot; format: binding; details: cell lysate from 293 stably transfected to express E1A as source
# T2 construct: endogenous in cells; host or cells: HT1080 cells (lysate)
# T2 sequence (P06400 1-928): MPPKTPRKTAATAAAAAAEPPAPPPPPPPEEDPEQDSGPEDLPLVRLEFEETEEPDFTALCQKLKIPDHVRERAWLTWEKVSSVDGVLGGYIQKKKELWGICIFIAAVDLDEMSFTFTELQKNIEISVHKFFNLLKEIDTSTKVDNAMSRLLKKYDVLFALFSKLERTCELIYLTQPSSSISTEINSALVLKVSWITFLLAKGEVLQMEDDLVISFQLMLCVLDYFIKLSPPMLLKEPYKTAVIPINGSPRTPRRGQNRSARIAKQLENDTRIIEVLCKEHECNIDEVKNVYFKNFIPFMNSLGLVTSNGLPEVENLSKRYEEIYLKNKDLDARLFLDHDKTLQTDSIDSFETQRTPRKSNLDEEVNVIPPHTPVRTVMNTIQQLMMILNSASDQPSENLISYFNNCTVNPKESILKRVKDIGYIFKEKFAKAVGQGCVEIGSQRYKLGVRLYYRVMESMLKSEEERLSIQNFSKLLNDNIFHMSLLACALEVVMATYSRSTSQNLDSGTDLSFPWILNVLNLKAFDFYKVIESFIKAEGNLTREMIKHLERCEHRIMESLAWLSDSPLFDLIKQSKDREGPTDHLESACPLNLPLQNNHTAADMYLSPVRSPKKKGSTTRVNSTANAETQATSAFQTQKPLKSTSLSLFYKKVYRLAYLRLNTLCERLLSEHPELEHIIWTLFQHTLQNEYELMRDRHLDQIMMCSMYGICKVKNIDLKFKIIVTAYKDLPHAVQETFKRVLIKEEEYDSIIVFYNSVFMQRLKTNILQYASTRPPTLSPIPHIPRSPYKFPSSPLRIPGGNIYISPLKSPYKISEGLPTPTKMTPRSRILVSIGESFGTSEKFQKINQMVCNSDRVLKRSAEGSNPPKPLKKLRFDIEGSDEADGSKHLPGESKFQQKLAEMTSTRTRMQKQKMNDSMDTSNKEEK
# Description: Rat RIZ was tested for binding to Rb in HT1080 cells (ATCC #ICCL 121). The cells were grown in DMEM supplemented with […]. Cells were lysed in ELB buffer (50 mM HEPES, pH 7.5, 250 mM NaCl, 0.1% NP-40) supplemented with 5 mM EDTA, 50 mM NaF, 1 mM Na orthovanadate, 1 mM of DTT, aprotinin, leupeptin, and PMSF. The lysate was cleared of cell debris by centrifugation at 12,000 rpm for 10 min in a microfuge.
# Binding between 4 μg GST-RIZ (215-462) and Rb from HT1080 cell extract was evaluated by first mixing the two, then binding GST-RIZ and any associated Rb to glutathione-agarose beads. The beads were washed in binding buffer and the bound complexes were eluted by boiling in SDS buffer and analyzed by immunoblotting with anti-Rb antiserum. Immunoblotting was performed by standard techniques (see, for example, Harlow and Lane, supra, 1988).
# [3] = biological target: T3, wild-type full length Rb (A9), 35S-labeled (UniProt P06400 2-928, limits assumed, 35S label); assay: preformed complex tested with anti-ce1
# T3 construct: mature; also called wt-Rb; wild-type Rb
# T3 sequence (looked up): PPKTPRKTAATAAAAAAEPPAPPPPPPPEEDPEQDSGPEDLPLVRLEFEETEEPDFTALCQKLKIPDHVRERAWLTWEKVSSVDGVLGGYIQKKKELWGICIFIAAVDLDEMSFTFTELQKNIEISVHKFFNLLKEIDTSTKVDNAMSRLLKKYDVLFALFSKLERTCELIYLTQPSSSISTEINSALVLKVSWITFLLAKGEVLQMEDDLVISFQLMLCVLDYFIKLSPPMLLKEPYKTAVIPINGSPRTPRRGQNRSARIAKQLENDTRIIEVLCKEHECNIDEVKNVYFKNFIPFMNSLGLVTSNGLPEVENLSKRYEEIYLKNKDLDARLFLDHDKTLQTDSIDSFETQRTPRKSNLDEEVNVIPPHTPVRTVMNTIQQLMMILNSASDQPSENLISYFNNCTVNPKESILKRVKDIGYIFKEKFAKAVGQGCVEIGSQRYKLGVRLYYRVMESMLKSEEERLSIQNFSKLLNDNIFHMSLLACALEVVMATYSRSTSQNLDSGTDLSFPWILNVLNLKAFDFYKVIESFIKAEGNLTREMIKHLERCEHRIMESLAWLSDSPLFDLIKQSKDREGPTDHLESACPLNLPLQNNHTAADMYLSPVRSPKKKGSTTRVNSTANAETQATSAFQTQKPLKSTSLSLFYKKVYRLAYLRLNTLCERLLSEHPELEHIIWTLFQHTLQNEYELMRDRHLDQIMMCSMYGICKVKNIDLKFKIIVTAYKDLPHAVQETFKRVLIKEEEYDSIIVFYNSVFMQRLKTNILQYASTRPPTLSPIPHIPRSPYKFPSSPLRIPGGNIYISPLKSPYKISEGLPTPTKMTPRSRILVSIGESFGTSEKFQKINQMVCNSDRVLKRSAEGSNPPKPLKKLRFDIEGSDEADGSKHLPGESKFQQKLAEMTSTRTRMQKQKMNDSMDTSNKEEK
# [4] = biological target: T4, 56 kD fragment of Rb produced by bacterial expression from p56Rb plasmid (UniProt P06400 379-928); assay: peptide competition against labeled RIZ (1-575) for 56 kD Rb
# T4 construct: range 379-928; Expressed in E. coli; also called 56 kD Rb
# T4 sequence (looked up): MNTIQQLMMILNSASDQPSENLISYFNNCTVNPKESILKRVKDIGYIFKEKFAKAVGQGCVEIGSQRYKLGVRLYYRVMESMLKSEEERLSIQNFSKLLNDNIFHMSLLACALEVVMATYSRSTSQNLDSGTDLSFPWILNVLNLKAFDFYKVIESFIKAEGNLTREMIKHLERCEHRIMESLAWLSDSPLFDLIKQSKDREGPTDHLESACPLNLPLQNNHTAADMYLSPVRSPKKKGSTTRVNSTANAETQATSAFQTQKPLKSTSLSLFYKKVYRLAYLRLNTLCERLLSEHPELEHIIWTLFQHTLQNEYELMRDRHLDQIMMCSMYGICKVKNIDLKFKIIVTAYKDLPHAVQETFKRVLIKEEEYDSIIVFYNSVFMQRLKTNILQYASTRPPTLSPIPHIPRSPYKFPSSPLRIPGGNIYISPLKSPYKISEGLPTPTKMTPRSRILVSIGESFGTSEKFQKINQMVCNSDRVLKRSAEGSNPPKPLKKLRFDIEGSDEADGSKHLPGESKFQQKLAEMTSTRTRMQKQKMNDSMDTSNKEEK
# [5] = biological target: T3, wild-type full length Rb (A9), …; assay: 35S-labeled full-length Rb preincubated with RIZ (215-462), immunoprecipitated with anti-ce1
# [6] = biological target: T3, wild-type full length Rb (A9), …; assay: immunoprecipitation with anti-RIZ antiserum, SDS-PAGE, autoradiography
molecule,measurement,setting,value
Nc1ncnc2c1ncn2[C@@H]1O[C@H](COP(=O)(O)OP(=O)(O)OP(=O)(O)O)[C@@H](O)[C@H]1O [ATP],effect of excess unlabeled nucleotide on binding of RIZ GTPase to radiolabeled GTP,[1],did not effect binding
Nc1ccn([C@@H]2O[C@H](COP(=O)(O)OP(=O)(O)OP(=O)(O)O)[C@@H](O)[C@H]2O)c(=O)n1 [CTP],effect of excess unlabeled nucleotide on binding of RIZ GTPase to radiolabeled GTP,[1],did not effect binding
Nc1nc2c(ncn2[C@@H]2O[C@H](COP(=O)(O)OP(=O)(O)OP(=O)(O)O)[C@@H](O)[C@H]2O)c(=O)[nH]1 [GTP],effect of excess unlabeled nucleotide on binding of RIZ GTPase to radiolabeled GTP,[1],inhibited binding
O=c1ccn([C@@H]2O[C@H](COP(=O)(O)OP(=O)(O)OP(=O)(O)O)[C@@H](O)[C@H]2O)c(=O)[nH]1 [UTP],effect of excess unlabeled nucleotide on binding of RIZ GTPase to radiolabeled GTP,[1],did not effect binding
E1A: adenoviral E1A protein; source was cell lysate from 293 stably transfected to express E1A [reference compound],inhibition of binding of GST-RIZ (215-462) to hypophosphorylated Rb,[2],inhibited binding
"35S labeled fragment of RIZ from amino acid position 1-575 (other, 35S label, In vitro transcribed/translated from Spe I linearized template) MHQNTESVAATETLAEVPEHVLRGLPEEVRLFPSAVDKTRIGVWATKPILKGKKFGPFVGDKKKRSQVRNNVYMWEVYYPNLGWMCIDATDPEKGNWLRYVNWACSGEEQNLFPLEINRAIYYKTLKPIAPGEELLVWYNGEDNPEIAAAIEEERASARSKRSSPKSRRGKKKSHENKNKGIRTHPTQLKASELDSTFANMRGSAEGPKEEDERPLASAPEQPAPLPEVGNQDAVPQVAIPLPACEPQPEVDGKQEVTDCEVNDVEEEELEEEEELEEEEEEELGEDGVEEADMPNESSAKEPEIRCEEKPEDLLEEPQSMSNEAREDSPDVTPPPHTPRAREEANGDVLETFMFPCQHCERKFATKQGLERHMHIHISTINHAFKCKYCGKRFGTQINRRRHERRHETGLKRRPSMTLQSSEDPDDGKGENVTSKDESSPPQLGQDCLILNSEKTSQEVLNSSFVEENGEVKELHPCKYCKKVFGTHTNMRRHQRRVHERHLIPKGVRRKGGLLEEPQPPAEQAPPSQNVYVPSTEPEEEGETDDVYIMDISSNISENLNYYIDGKIQTNSSTS",binding result,[3],binds
"EIRCEEKPEDL (Synthetic peptide; also called cr2 peptide) [RIZ-Pep, 11 amino acid peptide EIRCEEKPEDL representing a portion of the cr2 motif of RIZ]",binding result,[4],binds
RIZ (215-462) with the GST portion removed by thrombin cleavage (other) PLASAPEQPAPLPEVGNQDAVPQVAIPLPACEPQPEVDGKQEVTDCEVNDVEEEELEEEEELEEEEEEELGEDGVEEADMPNESSAKEPEIRCEEKPEDLLEEPQSMSNEAREDSPDVTPPPHTPRAREEANGDVLETFMFPCQHCERKFATKQGLERHMHIHISTINHAFKCKYCGKRFGTQINRRRHERRHETGLKRRPSMTLQSSEDPDDGKGENVTSKDESSPPQLGQDCLILNSEKTSQEVLN,binding result,[5],binds
"glutathionine S-transferase (GST) fused to a fragment of RIZ from amino acid position 245-573 (other, Expressed from pKG7.1S in E. coli and purified on glutathione agarose; also called GSTZ13; not shown: glutathione S-transferase from vector pGEX-KG) CEPQPEVDGKQEVTDCEVNDVEEEELEEEEELEEEEEEELGEDGVEEADMPNESSAKEPEIRCEEKPEDLLEEPQSMSNEAREDSPDVTPPPHTPRAREEANGDVLETFMFPCQHCERKFATKQGLERHMHIHISTINHAFKCKYCGKRFGTQINRRRHERRHETGLKRRPSMTLQSSEDPDDGKGENVTSKDESSPPQLGQDCLILNSEKTSQEVLNSSFVEENGEVKELHPCKYCKKVFGTHTNMRRHQRRVHERHLIPKGVRRKGGLLEEPQPPAEQAPPSQNVYVPSTEPEEEGETDDVYIMDISSNISENLNYYIDGKIQTNSS",binding result,[6],binds
